Measured values: patent publication US20260174833A1

What was measured:
[1] = biological target: TGFβ1 (R&D systems) (UniProt P01137); test: cell-based or functional assay
[2] = biological target: IL2Rβ and common γ chain on 32Dβ cells; test: cell-based or functional assay

Chain of UniProt P01137 (P01137 279-390 limits assumed): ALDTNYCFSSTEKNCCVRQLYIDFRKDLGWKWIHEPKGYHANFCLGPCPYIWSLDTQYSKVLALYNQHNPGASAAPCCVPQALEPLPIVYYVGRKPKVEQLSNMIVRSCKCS

Q: “TGFR-Fc (R&D Systems) (from UniProt P37173 24-159) (Fc fusion)” was tested. Which IC50, inhibition of TGFβ1 activity in HEK-Blue TGFβ cells (QUANTI-Blue OD 620-655 nM) [1] did it give?
A: Its IC50, inhibition of TGFβ1 activity in HEK-Blue TGFβ cells (QUANTI-Blue OD 620-655 nM) is 0.461 nM.

Q: With “recombinant IL-15 (from UniProt P40933 49-162) (ligand)” as the substance, how does the EC50, 32Dβ cell proliferation (WST1, absorbance at 450 nM) [2] read?
A: The EC50, 32Dβ cell proliferation (WST1, absorbance at 450 nM) was 0.0106 nM.
